Like-named read-outs stand apart in the source and are kept apart here.
Columns and labels:
SAMHD1 113-626 R451E = SAMHD1 113-626 R451E (Homo sapiens, UniProt Q9Y3Z3 113-626, R451E); assay: fluorescence anisotropy
[1] = target: T1, SAMHD1 113-626 (HD domain) (Homo sapiens, UniProt Q9Y3Z3 113-626); assay: crystal structure
SAMHD1 WT [2] = target: T2, SAMHD1 WT (Homo sapiens, UniProt Q9Y3Z3 1-626); assay: fluorescence anisotropy
SAMHD1 WT [3] = target: T2, SAMHD1 WT; assay: fluorescence anisotropy; remark: listed apart in the source
SAMHD1 C522A = SAMHD1 C522A (Homo sapiens, UniProt Q9Y3Z3 1-626, C522A); assay: fluorescence anisotropy
[4] = target: T1, SAMHD1 113-626 (HD domain); assay: crystal structure; remark: listed apart in the source

T2 sequence (Q9Y3Z3 whole entry): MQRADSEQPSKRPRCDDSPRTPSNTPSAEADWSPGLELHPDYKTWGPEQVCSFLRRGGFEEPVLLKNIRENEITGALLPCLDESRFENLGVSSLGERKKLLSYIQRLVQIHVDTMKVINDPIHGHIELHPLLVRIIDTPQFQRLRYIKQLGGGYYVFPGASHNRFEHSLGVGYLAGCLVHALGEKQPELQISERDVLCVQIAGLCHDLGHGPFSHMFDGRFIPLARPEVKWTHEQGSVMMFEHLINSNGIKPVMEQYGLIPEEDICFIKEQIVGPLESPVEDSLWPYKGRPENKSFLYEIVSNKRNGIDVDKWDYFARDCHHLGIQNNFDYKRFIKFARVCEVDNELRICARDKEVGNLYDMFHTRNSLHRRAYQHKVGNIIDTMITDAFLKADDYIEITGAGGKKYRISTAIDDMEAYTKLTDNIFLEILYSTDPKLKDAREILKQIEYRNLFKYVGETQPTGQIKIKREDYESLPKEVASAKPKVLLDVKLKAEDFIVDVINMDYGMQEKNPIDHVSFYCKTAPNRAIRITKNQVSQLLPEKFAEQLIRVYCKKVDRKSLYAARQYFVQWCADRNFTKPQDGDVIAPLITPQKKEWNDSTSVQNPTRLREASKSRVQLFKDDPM
T1 sequence (Q9Y3Z3 113-626): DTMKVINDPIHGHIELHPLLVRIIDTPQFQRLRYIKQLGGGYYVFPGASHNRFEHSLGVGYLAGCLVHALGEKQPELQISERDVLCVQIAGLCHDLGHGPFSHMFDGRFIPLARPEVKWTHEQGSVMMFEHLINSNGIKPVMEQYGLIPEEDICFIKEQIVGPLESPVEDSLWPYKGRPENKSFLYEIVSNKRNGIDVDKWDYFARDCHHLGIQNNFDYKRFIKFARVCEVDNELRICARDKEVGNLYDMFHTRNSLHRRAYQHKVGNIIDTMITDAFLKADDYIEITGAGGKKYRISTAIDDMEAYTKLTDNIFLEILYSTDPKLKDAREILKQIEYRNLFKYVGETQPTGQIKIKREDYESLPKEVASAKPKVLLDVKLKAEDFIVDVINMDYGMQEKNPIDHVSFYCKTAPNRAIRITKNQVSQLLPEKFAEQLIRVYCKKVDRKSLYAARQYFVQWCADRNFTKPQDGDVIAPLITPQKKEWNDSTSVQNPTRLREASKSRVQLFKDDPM
Sequence of SAMHD1 C522A (Q9Y3Z3 whole entry C522A, the tested form may be a part): as the sequence (Q9Y3Z3 whole entry) above, with C522A counted along it
Sequence of SAMHD1 113-626 R451E (Q9Y3Z3 113-626 R451E): as the sequence (Q9Y3Z3 113-626) above, with R339E counted along it

## GACAGTGTTGAGACAGGACCAGACAGGTAG (ssDNA) [ssDNA 30mer]
SAMHD1 113-626 R451E
  binding result: no binding

## CATGT (ssDNA) [CATGT 5mer]
[1]
  binding result: binds

B1: 3' overhang (mixed)
DNA 1: TGGAGAATCCCGGTGCCGAGGCCGCTCAATTGGTCGTAGACAGCTCTAGCACCGCTT
DNA 2: TGAGCGGCCTCGGCACCGGGATTCTCCA
SAMHD1 WT [2]
  binding result: binds

B2: 3' fork (mixed)
DNA 1: B1 DNA 1
DNA 2: AATTGTGAGCGGCCTCGGCACCGGGATTCTCCA
SAMHD1 WT [3]
  binding result: binds

B3: dsDNA 30mer (dsDNA)
DNA 1: GACAGTGTTGAGACAGGACCAGACAGGTAG
DNA 2: CTACCTGTCTGGTCCTGTCTCAACACTGTC
SAMHD1 C522A
  binding result: no binding

## CATTG (ssDNA) [CATTG 5mer]
[4]
  binding result: binds

From paper PMC10359594
